Results: IntAct's records for PubMed 7518772

B1: Receptor-type tyrosine-protein phosphatase alpha (Mus musculus), P18052 (parent)
chain: MDSWFILVLFGSGLIHVSANNATTVSPSLGTTRLIKTSTTELAKEENKTSNSTSSVISLSVAPTFSPNLTLEPTYVTTVNSSHSDNGTRRAASTESGGTTISPNGSWLIENQFTDAITEPWEGNSSTAATTPETFPPADETPIIAVMVALSSLLVIVFIIIVLYMLRFKKYKQAGSHSNSFRLSNGRTEDVEPQSVPLLARSPSTNRKYPPLPVDKLEEEINRRMADDNKLFREEFNALPACPIQATCEAASKEENKEKNRYVNILPFLSLAVSKDAVKALNKTTPLLERRFIGKSNSRGCLSDDHSRVHLTPVEGVPDSDYINASFINGYQEKNKFIAAQGPKEETVNDFWRMIWEQNTATIVMVTNLKERKECKCAQYWPDQGCWTYGNVRVSVEDVTVLVDYTVRKFCIQQVGDVTNRKPQRLITQFHFTSWPDFGVPFTPIGMLKFLKKVKACNPQYAGAIVVHCSAGVGRTGTFVVIDAMLDMMHSERKVDVYGFVSRIRAQRCQMVQTDMQYVFIYQALLEHYLYGDTELEVTSLETHLQKIYNKIPGTSNNGLEEEFKKLTSIKIQNDKMRTGNLPANMKKNRVLQIIPYEFNRVIIPVKRGEENTDYVNASFIDGYRQKDSYIASQGPLLHTIEDFWRMIWEWKSCSIVMLTELEERGQEKCAQYWPSDGLVSYGDITVELKKEEECESYTVRDLLVTNTRENKSRQIRQFHFHGWPEVGIPSDGKGMINIIAAVQKQQQQSGNHPITVHCSAGAGRTGTFCALSTVLERVKAEGILDVFQTVKSLRLQRPHMVQTLEQYEFCYKVVQEYIDAFSDYANFK

Variants of: B1
Details: with src_mouse Src

Variant	effect of a mutation on the interaction
Y825F	disrupting interaction
